These results are taken from PMC5171221.

For series [1], the target named is T1, apododecin DtE (triple E variant) (Halobacterium salinarum, UniProt B0R5M0 1-68, E45A;del50-50;del51-51).
T1 sequence: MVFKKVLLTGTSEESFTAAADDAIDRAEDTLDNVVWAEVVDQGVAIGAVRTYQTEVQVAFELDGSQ
In words: QCM-D.

Series [2] addresses T1, apododecin DtE (triple E variant). In words: QCM-D. The source holds these as a separate data set.

Read-outs that look alike come from different tables or passages of the source.

B1: flavin-dsDNA 100 bp surface tether (dsDNA)
DNA 1: GTCACGATGGCCCAGTAGTT
DNA 2: AACTACTGGGCCATCGTGAC
DNA 3: CGCCGCCGCCGACGACGCCATCGACCGCGCGGAGGACACCCTCGACAACGTGGTGTGGGCGTCACGATGGCCCAGTAGTT
DNA 4: GCCCACACCACGTTGTCGAGGGTGTCCTCCGCGCGGTCGATGGCGTCGTCGGCGGCGGCGAACTACTGGGCCATCGTGAC
modifications: strand 1 5' flavin (CofC4); strand 2 5' (dithiane)3, on gold
On to B1, for which the binding result in series [1] was “binds”.

B2: flavin-dsLNA 7 bp surface tether (XNA)
?: GGGCGAC
DNA: GTCGCCC
modifications: LNA; strand 1 5' flavin (CofC4); strand 2 5' 1,2-dithiane, on gold
On to B2, for which, in series [2], the binding result is reported as “binds”.
